According to patent US20130224246A1 (MACFARLANE BURNET INSTITUTE FOR MEDICAL RESEARCH AND PUBLIC …, published 2013):

Columns and labels:
Δ123 E2661 M + C597A = Δ123 E2661 M + C597A (HCV genotype 1a H77c, UniProt P27958 409-661); experiment: EIA: E2 titrated on coated MBP-LEL113-201 (5 ug/ml), detected with anti-His
[1] = biological target: WT E2661 M + C597A (C452A, C486A, C569A, C581A, C585A, C597A and C652A) (HCV genotype 1a H77c, UniProt P27958 384-661); experiment: as above

B1: MBP-LEL113-201, maltose-binding protein linked to the CD81 large extracellular loop between residues 113 to 201 (receptor)
chain: FVNKDQIAKDVKQFYDQALQQAVVDDDANNAKAVVKTFHETLDCCGSSTLTALTTSVLKNNLCPSGSNIISNLFKEDCHQKIDDLFSGK
notes: range 113-201; also called CD81-LEL; CD81 LEL
B1: binds (Δ123 E2661 M + C597A); binds [1].
